Measured values: paper PMC11574021, “CEP192 localises mitotic Aurora-A activity by priming its interaction with TPX2” (The EMBO Journal, 2024)

Assays:
[1] = target: T1, unphosphorylated Aurora-A CAKD (Homo sapiens, UniProt O14965, C290A/C393A); test: Fluorescence anisotropy competition with FAM-TPX2 7-43; type: binding; settings: for IC50: competition with 100 nM FAM-TPX2 7-43, 10 μM unphosphorylated Aurora-A CAKD, n = 3 (Appendix Fig. S4E)
T1 construct: 10 μM Aurora-A kinase domain (phosphorylated or unphosphorylated C290A C393A 122–403); His (N, cleaved yes); made in house; host or cells: E. coli RIL, co-expressed with lambda phosphatase
T1 sequence (O14965 122-403 C290A/C393A): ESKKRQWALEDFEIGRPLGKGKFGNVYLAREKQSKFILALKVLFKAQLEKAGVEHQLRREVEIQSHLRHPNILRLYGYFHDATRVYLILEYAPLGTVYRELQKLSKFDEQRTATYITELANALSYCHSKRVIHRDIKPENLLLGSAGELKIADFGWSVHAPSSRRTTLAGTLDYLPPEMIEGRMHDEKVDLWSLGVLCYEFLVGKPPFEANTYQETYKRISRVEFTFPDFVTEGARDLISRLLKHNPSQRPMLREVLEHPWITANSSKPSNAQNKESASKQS
Protocol: (§1) Assays were performed in 25 mM HEPES pH 7.5, 150 mM NaCl, 2 mM DTT, 5 mM MgCl2, 0.01% Tween 20. For CEP192 and TPX2 competition assays 10 μM Aurora-A kinase domain (phosphorylated or unphosphorylated C290A C393A 122–403) was preincubated on ice with 100 nM FAM-TPX2 7-43 or 100 nM FAM-CEP192 501–533. For TACC3 competition, due to weaker binding, 25 μM Aurora-A kinase domain (phosphorylated or unphosphorylated C290A C393A 122–403) was preincubated with 100 nM FAM-TACC3 522-536. Serial dilutions of competitor (CEP192) were performed in triplicate into a low volume 384-well black plate, before the premixed Aurora-A and tracer were added. A control row included no tracer. Plates were left incubating for 1 h at room temperature before the fluorescence anisotropy was measured using a HIDEX plate reader, with excitation at 485 nm and emission at 535 nm. For direct binding experiments, the assay was performed as above, but the Aurora-A (122–403 C290A C393A or point mutants) was diluted across the plate from high to low concentration, before the addition of 50 nM tracer (FAM-CEP192 501–533) to three replicate rows. Buffer only was added to the control row.
(§2) Fluorescence anisotropy data were processed using Microsoft Excel to calculate intensity and anisotropy using the equation listed in (Yeo et al, [2013]). The IC50 and Kd values were calculated using Origin (OriginLab) where the data fitted to a sigmoid and are summarised in Appendix Table S3.

Aurora-A KD F165D/R205A = test: ITC, CEP192 with Aurora-A KD F165D/R205A; type: binding, human; settings: 25 °C, pH 7.5
Protocol: (§3) Thermodynamic information was established using the ITC200 microcalorimeter (MicroCal, Northampton, MA). Proteins were dialysed overnight into 20 mM tris pH 7.5, 200 mM NaCl, 10% glycerol, 5 mM magnesium chloride (CEP192 constructs/mutants and Aurora-A 122–403 mutants). Experiments were carried out at 25 °C. The syringe contained 70 μl of 250 μM Aurora-A 122–403 (D274N C290A C393A or mutant). About 2 μl injections were applied every 180 s. The cell contained 205 μl of 25 μM CEP192 construct/mutant. Microcal Origin software version 7.0 was used to determine the dissociation constants (Kd). All measurements were repeated at least twice.

[2] = target: T2, phosphorylated Aurora-A CAKD (Homo sapiens, UniProt O14965, C290A/C393A); test: Fluorescence anisotropy competition with FAM-CEP192 501-533, phosphorylated Aurora-A; type: binding; settings: competition with 100 nM FAM-CEP192 501-533, 10 μM phosphorylated Aurora-A CAKD, n = 3
T2 construct: 10 nM Aurora-A 122–403 C290A C393A phosphorylated protein; His (N, cleaved yes); made in house; host or cells: E. coli B834 (no lambda phosphatase)
T2 sequence (O14965 122-403 C290A/C393A): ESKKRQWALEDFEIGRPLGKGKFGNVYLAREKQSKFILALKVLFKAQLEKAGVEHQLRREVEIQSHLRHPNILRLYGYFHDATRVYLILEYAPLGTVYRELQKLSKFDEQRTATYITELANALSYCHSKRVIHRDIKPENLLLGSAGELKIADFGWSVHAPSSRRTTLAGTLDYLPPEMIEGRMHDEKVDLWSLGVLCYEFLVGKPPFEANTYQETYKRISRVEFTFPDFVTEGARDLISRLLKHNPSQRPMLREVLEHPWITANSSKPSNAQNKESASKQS
Protocol: as §1, §2

[3] = target: T1, unphosphorylated Aurora-A CAKD; test: Fluorescence anisotropy competition with FAM-CEP192 501-533, unphosphorylated Aurora-A; type: binding
Protocol: as §1, §2

[4] = target: T2, phosphorylated Aurora-A CAKD; test: ITC, CEP192 with phosphorylated Aurora-A CAKD; type: binding; settings: ratio of Kd, phosphorylated vs unphosphorylated
Protocol: as §3

Aurora-A CAKD = target: T3, Aurora-A CAKD (Homo sapiens, UniProt O14965, C290A/C393A); test: Fluorescence anisotropy competition with FAM-TACC3 522-536; type: binding; settings: in words
T3 construct: 25 μM Aurora-A kinase domain (phosphorylated or unphosphorylated C290A C393A 122–403); His (N, cleaved yes); made in house; host or cells: E. coli
T3 sequence (O14965 122-403 C290A/C393A): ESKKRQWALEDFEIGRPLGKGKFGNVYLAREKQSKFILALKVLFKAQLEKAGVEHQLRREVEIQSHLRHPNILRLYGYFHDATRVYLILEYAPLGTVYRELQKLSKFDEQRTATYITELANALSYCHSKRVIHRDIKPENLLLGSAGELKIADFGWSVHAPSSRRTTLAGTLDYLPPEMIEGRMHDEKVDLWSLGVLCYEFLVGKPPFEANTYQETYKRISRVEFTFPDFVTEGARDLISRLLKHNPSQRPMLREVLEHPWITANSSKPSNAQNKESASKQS
Protocol: as §1, with “For direct binding experiments, the assay was performed as above, but the Aurora-A (122–403 C290A C393A or point mutants) was diluted across the plate from high to low concentration, before the addition of 50 nM tracer (FAM-CEP192 501–533) to three replicate rows. Buffer only was added to the control row.” left out
as §2

[5] = target: T2, phosphorylated Aurora-A CAKD; test: ADP-Glo kinase assay, kemptide substrate; type: biochemical; settings: ADP-Glo, phosphorylated Aurora-A CAKD, kemptide; in words
Protocol: Reactions were initiated by the addition of 10 μM ATP and 100 μM kemptide as substrate (Cambridge Bioscience Ltd). The reactions were incubated at room temperature for 60 min before 5 μl was transferred into 5 ul of ADP-Glo Reagent (Promega) in a 384-well low volume low binding plate (Greiner Bio-one). After a further 40 min at room temperature, 10 μl of kinase detection reagent was added to each well, and the reaction was allowed to incubate for an additional 30 min. Luminescence was measured on a HIDEX Sense plate reader (HIDEX) using a 1 s integration time. Control data was subtracted from the luminescence and three repeats were averaged before being fitted to a sigmoidal plot using Origin (OriginLab), where IC50 and EC50 values were calculated.

B1: CEP192 468-533: recombinant human CEP192 aa 468–533, minimal binding region (protein)
chain: PQSVVYQNEEGRWVTDLAYYTSFNSKQNLNVSLSDEMNEDFRSGSEAFDLIAQDEEEFNKEHQFIQ
modifications: left off: His6, N-terminal, cleaved | SUMO, N-terminal, cleaved
For B1, the IC50 [1] was 3.24 µM, the IC50 ([1]; listed as WT CEP192) was about 4 µM and the “competition for binding with FAM-TPX2 7-43” value ([1]; in words, Aurora-A CAKD) was “competed for binding with FAM-TPX2_7-43”. It also gave a Kd (Aurora-A KD F165D/R205A) of 26 ± 16 µM, an IC50 [2] of 0.63 µM and an IC50 ([3]; competition with 100 nM FAM-CEP192 501-533, 10 μM unphosphorylated Aurora-A CAKD, n = 3) of 1.42 µM. For the same molecule, the “ability to compete for binding, phosphorylated vs unphosphorylated Aurora-A” value ([3]; competition with FAM-CEP192 501-533, in words) was “No significant difference”, the “difference in affinity compared to unphosphorylated Aurora-A” value [4] was “around a twofold difference in affinity” and the “competition for binding with FAM-TACC3 522-536” value (Aurora-A CAKD) was “competed for binding with FAM-TACC3_522-536”. The “effect on Aurora-A kinase activity” value [5] was “partially inhibited the activity”.
